This is an account of results in patent publication US20200362024A1, “BIOLOGICAL MATERIALS AND USES THEREOF” (IMPERIAL INNOVATIONS LIMITED, priority 2009, published 2020).

The subject of one data set is tenascin-C. In words: siRNA mediated knockdown of tenascin-C expression in RA synovial fibroblasts. In kind it is cell-based, human. Particulars: 10 nM siRNA, compared to luciferase siRNA control. As to the method: (§1) Synovial fibroblasts (used only at either passage number 2 or 3) were seeded at a concentration of 5×10^4 cells in a 3.5-cm dish. siRNA was transfected at a final concentration of 10 nM using Lipofectamine 2000 (Invitrogen) for 4 h in serum-free OptiMEM I. Two different siRNAs against human tenascin-C were used (s7069 and s229491) (Applied Biosystems).
siRNA sequences of s7069 are: (sense 5′ […]tt 3′, antisense 5′ […]tc 3′) and of s229491 are (5′ […]tt 3′, antisense 5′ […]gg 3′). siRNA against luciferase (Dharmacon) was transfected as a non-targeting control.
Four hours after transfection, medium was changed with pre-equilibrated Dulbecco's modified Eagle's medium containing 10% FBS (v/v) and cells were incubated for a further 48 h and 72 h. Cells were then stimulated with 10 ng/ml LPS for 24 h at 37° C. Tenascin-C mRNA and protein levels were quantitated by PCR and western blotting respectively. […]
Gene expression was analysed by delta-delta ct methods based on quantitative real-time PCR with TaqMan primer set human tenascin-C(Hs01115663-ml) and human ribosomal protein endogenous control (RPLPO) (4310879E) (Applied Biosystems) in a Corbett Rotor-gene 6000 machine (Corbett Research Ltd). Tenascin-C protein was detected in cell supernatants and cell lysates by SDS PAGE and western blotting using antibody MAB1908 (Millipore).

For a further data set, the system named is RA synovial fibroblasts. In words: Cytokine synthesis in RA synovial fibroblasts transfected with tenascin-C siRNA. Type of data set: cell-based, human. Particulars: compared to control cells (IL6). The procedure:
as §1
Four hours after transfection, medium was changed with pre-equilibrated Dulbecco's modified Eagle's medium containing 10% FBS (v/v) and cells were incubated for a further 48 h and 72 h. Cells were then stimulated with 10 ng/ml LPS for 24 h at 37° C. Tenascin-C mRNA and protein levels were quantitated by PCR and western blotting respectively. Total RNA was extracted from cells using a QiaAmp RNA Blood mini kit (Qiagen, Germany). cDNA was synthesised from equivalent amounts of total RNA using SuperScript® III Reverse Transcriptase (invitrogen) and 18-mer oligo dTs (Eurofins MWG Operon).
Supernatants were examined for the presence of the cytokines TNF-α, IL-6, and IL-8 by enzyme-linked immunosorbent assay (ELISA) according to the manufacturer's instructions (R&D systems). Absorbance was read on a spectrophotometric ELISA plate reader (Labsystems Multiscan Biochromic, Vantaa, Finland) and analyzed using the Ascent software program (Thermo Labsystems, Altrincham, UK).

B1: tenascin-C siRNA: tenascin-C targeted siRNAs; combination of oligos 1+2 used for cytokine synthesis (nucleic acid)
sense 1: CGCGAGAACUUCUACCAAATT
antisense 1: UUUGGUAGAAGUUCUCGCGTC
sense 2: GGAAUAUGAAUAAAGAAGATT
antisense 2: UCUUCUUUAUUCAUAUUCCGG
modifications: chemistry not given here
notes: tenascin-C targeted siRNAs; combination of oligos 1+2 used for cytokine synthesis
Turning to B1, in the data set on tenascin-C, the “knockdown of tenascin-C expression, maximal efficiency” value was 94-96%. Further, in the data set with RA synovial fibroblasts (10 ng/ml LPS 24 h), the “inhibition of LPS induced cytokine production” value came to 44%. Moreover, in the data set with RA synovial fibroblasts, the “inhibition of basal level of cytokine synthesis” value was 38%.
